# From the nanobody polyreactivity screen of Harvey et al. (2022)
# Test: yeast display, Sf9 membrane polyspecificity reagent, FACS + sequencing; frameworks hold sequencing errors
# In short: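 Synthetic nanobody libraries on Saccharomyces cerevisiae BJ5465 were galactose-induced for 36–48 hours, stained 1 hour at 4 °C with 10% biotinylated, detergent-solubilized Sf9 membrane reagent and enriched on streptavidin microbeads. FACS then separated cells into low and high (top ~1%) gates by anti-HA (expression) and streptavidin (reagent binding) fluorescence. Genes were colony-PCR amplified, MiSeq 2 × 250 sequenced and CDR-length filtered. A clone's polyreactivity label is that of its gate of origin.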
row,Sequence,polyreactivity (PSR sort gate)
1,QVQLVESGGGLVQAGGSLRLSCAASGSIFGDNTRGWYRQAPGKERELVAAISWRGGSTYYADSVKGRFTISRDNSKNTVYLQMNSLKPEDTAVYYCIGGPGGYDYWGQGTQVTVSS,low polyreactivity
2,QVQLVESGGGLVQAGGSLRLSCAASGSIFGDYAMGWYRQAPGKERELVAAITWSGGSTTYADSVKGRFTISRDNAKNTVYLQMNSLKPEDTAVYCCAVYGWRFYSYDDYFDFNYWGQGTQVTVSS,low polyreactivity
3,QVQLVESGGGLVQAGGSLRLSCAASGSIFGDYARGWYRQAPGKERELVAAISRSGGSTSYADSVKGRFTISRDNAKNTVYLQMNSLKPEDSAVYYCAAYWQRFGYDYWGQGTQVSVSS,low polyreactivity
4,QVQLVESGGGLVQAGGSLRLSCAASGSIFGENAMGGYRQAPGKERELVAAITSGGSTDYADSVKGRFTISRDNAKNTVYLQMNSLKPEDTAVYYCAASGRVGPGYWYDSWGQGTQVTVSS,low polyreactivity
5,QVQLVESGGGLVQAGGSLRLSCAASGSIFGFNAMGWYRQAPGKEREFVAVISNRGGSTYYADSVKGRFTISRDNAKNTVYLQMNSLKPEDTAVYYCAARPYRDSGYWGQGTQVTVSS,high polyreactivity
6,QVQLVESGGGLVQAGGSLRLSCAASGSIFGFNAMGWYRQAPGKERELVAAITNSGVRTYYADSVKGRFTISRDNAKNTVYLQMNSLKPEDTAVYYCAAEPDTYWYTYDYWGQGTQVTVSS,low polyreactivity
7,QVQLVESGGGLVQAGGSLRLSCAASGSIFGFYAMGWYRQAPGKEREFVASISDSSGSTYYADSVKGRFTISRDNAKNTVYLQMNSLKPEDTAVYYCNARVNYRWPYSWRYYWGQGTQVTVSS,high polyreactivity
8,QVQLVESGGGLVQAGGSLRLSCAASGSIFGFYAMGWYRQAPGKERELVASINWSGGSTYYADSVKGRFTISRDNAKNTVYLQMNSLKPEDTAVYYCNADQYHWYDYWGQGTQVTVSS,low polyreactivity
9,QVQLVESGGGLVQAGGSLRLSCAASGSIFGGDGMGWYRQAPGKERQLVAAITSGSSTYYADSVKGRFTISRDNAKNTVYLQLNILKPEDTAVYYCAARPYPHSAYEGDYWGRGTQVTVSS,low polyreactivity
10,QVQLVESGGGLVQAGGSLRLSCAASGSIFGGYAMGWSRQAPGNERELVASISISGGSTYYADSVKGRFTISRDNAKNTVYLQMNRLKPEDTAGYYCATDRTTTLNSPYGDPDRDDYWGQGTQVTVSS,low polyreactivity
11,QVQLVESGGGLVQAGGSLRLSCAASGSIFGGYAMGWYRQAPGKERELVAAISSGGSTYYADSVKGRFTISRDNAKNTVYLQMNSLKPEDTAVYYCNADRGNWWDYGRAYGYDYWGQGTQVTVSS,low polyreactivity
12,QVQLVESGGGLVQAGGSLRLSCAASGSIFGGYGMGSYRQAPGKERELVAAITSGSSTYYADSVKGRFTISRDNAKNTVYLQMNSLKPEDTAVYYCAARPYPHSAYEGDYWGRGTQVTVSS,low polyreactivity
13,QVQLVESGGGLVQAGGSLRLSCAASGSIFGGYGMGWYRQAPGKERELVAVITKRGGSTYYADSVKGRFTISRDNAKNTVYLQMNSLKPEDTAVYYCNADYRRYPEFDYWGQGTQVTVSS,high polyreactivity
14,QVQLVESGGGLVQAGGSLRLSCAASGSIFGGYTMGWYRQAPGKERELVAAISARGGNTYYADSVKGRFTISRDNAKNTVYLQMNSLKPEDTSVYYCAKVRYTQSYRGYGFWGQGTQVTVSS,high polyreactivity
15,QVQLVESGGGLVQAGGSLRLSCAASGSIFGGYVMGWSRQAPGKEWELVAAITSGGSTYYADSVKGRFTISRDNAKNTVYLQMNSLKPEDTAVYYCNADPYTYSYGMYYWGQGTQVTVSS,low polyreactivity
16,QVQLVESGGGLVQAGGSLRLSCAASGSIFGGYVMGWYRQAPGKERELVAAITSGGSTYYADSVKGRFTISRDNAKNTVYLQMNSLKPEDTAVYYCNADPYTYSYGMYYWGHGTQVTVSS,low polyreactivity
17,QVQLVESGGGLVQAGGSLRLSCAASGSIFGINAMGWYRQAPGKERELVAAISGSTSRTYYADSVKGRFTISRDTAKNTVYLQMNSLKPEDTAVYYCARVKGVYHFSILDYWGQGTQVTVSS,high polyreactivity
18,QVQLVESGGGLVQAGGSLRLSCAASGSIFGIYAMGWYRQAPGKERELVAAIRVSDGRTYYADSVKGRFTISRDNAKNTVYLQMNSLKPEDTAVYYCAAESQSSYGPYDYWGQGTQVTVSS,low polyreactivity
19,QVQLVESGGGLVQAGGSLRLSCAASGSIFGKYAMGWYRQAPGKERELVAAISDSGSITYYADSVKGRFTISRDNAKNTVYLQMNSLKPEDTAVYYCAAERYLLWGFEENYWGQGTQVTVSS,high polyreactivity
20,QVQLVESGGGLVQAGGSLRLSCAASGSIFGKYAMGWYRQAPGKERELVAAISKRGGSTYYADSVKGRFTISRDNAKNTVYLQMNSLKPEDTAVYYCAATPVYSGPYDYWGQGTQVTVSS,high polyreactivity
21,QVQLVESGGGLVQAGGSLRLSCAASGSIFGKYAMGWYRQAPGKERELVAAISRSGSRTFYADSVKGRFTISRDNAKNTVYLQMNSLKPEDTAVYYCNALSGDSYSYYGYDSWGQGTQVTVSS,high polyreactivity
22,QVQLVESGGGLVQAGGSLRLSCAASGSIFGLYAMGWYRQAPGKERDLVAVITYYVGTTYYADSVKGRFTISRDTAKNTVYLQMHSLKPEDTAVYYCAADLYWYYPWSAYYGEYDYWGQGTQVTVSS,low polyreactivity

row,Sequence,polyreactivity (PSR sort gate)
1,QVQLVESGGGLVQAGGSLRLSCAASGSIFGLYAMGWYRQAPGKERELVAAISTSSGRTYYADSVKGRFTISRDNAKNTVYLQMNSLKPEDTAVYYCAASGAWWSLHYAGDYWGQGTQVTVSS,high polyreactivity
2,QVQLVESGGGLVQAGGSLRLSCAASGSIFGLYAMGWYRQAPGKERELVATISKSGVSTYYADSVKGRFTISRDNAKNTVYLQMNSLKPEDTAVYYCNADISRDKDFDYWGQGTQVTVSW,low polyreactivity
3,QVQLVESGGGLVQAGGSLRLSCAASGSIFGNYAMGWYRQAPGKERELVAAITSSGGTYYADSVKGRFTISRDNAKNTVYLQMNSLKPEDTAVYYCAARYYSYRHQSVKYGYWGQGTQVTVSS,high polyreactivity
4,QVQLVESGGGLVQAGGSLRLSCAASGSIFGPYAMGWYRQAPGKERELVAAITWTGGRTYYADSVKGRFTISRDNAKNTVYLQMNSLKPEDNAVYYCAADYSPSTWYLYYTLYYYWGQGTQVTVSS,low polyreactivity
5,QVQLVESGGGLVQAGGSLRLSCAASGSIFGPYAMGWYRQAPGKERYADSVKGRFTISRDNAKNTVYLQMNSLKPEDTAVYYCNADTSRWRYSQPIYDYWGQGTQVTVSS,low polyreactivity
6,QVQLVESGGGLVQAGGSLRLSCAASGSIFGQNAMGWYRQAPGKERELVAAITSGAGITYYADSVKGRFTISRDNAKNTVYLQMNSLKPEDPAVYYCNAVPSWSPSPLFDYWGQGTQVTVSS,low polyreactivity
7,QVQLVESGGGLVQAGGSLRLSCAASGSIFGQYAMGWYRQAPGKERELVAAISTRGGSTRYADSVKGRFTISRDNAKNTVYLQMNSLKPEDTAVYYCAARVPYIRHLAVDYWGQGTQVTVSS,high polyreactivity
8,QVQLVESGGGLVQAGGSLRLSCAASGSIFGRNAMGWYREAPGKERVLVAAINSGGSTNYADSVKGRFTISRDNAKNTVYLQMNSLKPEDTAVYYCAARTYSSGRYYGYVAFYYWGQGTQVTVSS,high polyreactivity
9,QVQLVESGGGLVQAGGSLRLSCAASGSIFGRNAMGWYRQAPGKERELGAAMTGSGTSTYADSVKGRFTISRDNAKNTVYLQMNSLKPEDTAVYYCAAGVTTVEYEYCGQGTQVTVSS,low polyreactivity
10,QVQLVESGGGLVQAGGSLRLSCAASGSIFGRNAMGWYRQAPGKERELVAAISFIGGSTYYADSVKGRFTISRDNAKNTVYLQMNSLKPEDTAVYYCATSVFYYGSLYGYWGQGTQVTVSS,high polyreactivity
11,QVQLVESGGGLVQAGGSLRLSCAASGSIFGRNAMGWYRQAPGKERELVARISSRGGSTYYADSVKGRFTISRDNAKNTVYLQMNSLKPEDTAVYYCNRDRTWQTNDYWGQGTQVTVSS,high polyreactivity
12,QVQLVESGGGLVQAGGSLRLSCAASGSIFGRNDMGWYRQAPGKERELVARITRGGSTNYADSVKGRFTISRDNAKNTVYLQMNSLKPEDTAVYYCAKEFKYWGYPYDYWGQGTQVTVSS,low polyreactivity
13,QVQLVESGGGLVQAGGSLRLSCAASGSIFGRYAMGWYRQAPGKERELVAAISYSGGSTYYADSVKGRFTISRDNAKNTVYLQMKSLKPEDTAFYYCAAEPSYYTRWFDGHYYYWGQGSQVTVSS,high polyreactivity
14,QVQLVESGGGLVQAGGSLRLSCAASGSIFGRYAMGWYRQAPGKERELVATITFRDTSTYYADSVKGRFTISRDTAKYTVLLLMNSLKPEDTAVYYCAAVRADLWDIARYDYWGQGTQETVSS,low polyreactivity
15,QVQLVESGGGLVQAGGSLRLSCAASGSIFGRYAMGWYRQAPGKESELVAAISANGGSTYYADSVKGRFTISRDNAKNTVYLQMNSLKPEDTAVYYCAAGSTRGYKLGYWGQGTQVTVSS,high polyreactivity
16,QVQLVESGGGLVQAGGSLRLSCAASGSIFGRYGAMGWSRQSPGKERELVAAIRTSGVSTYYADSVKGRFTISRDNAKNTVYLQMNSLKPEDTAVYYCAARAGRYRWTRFDYWGQGTQVTVSS,low polyreactivity
17,QVQLVESGGGLVQAGGSLRLSCAASGSIFGRYGMVCYRQAPGKERQLVAAITSGTGTNYADSVKGRFTISRDNALNTVYLQMNSLKPEDTAVYYCNALRLRGNYEYGYWGQGTQVTLSS,low polyreactivity
18,QVQLVESGGGLVQAGGSLRLSCAASGSIFGRYTMGWYRQAPGKERELVAAISSSGGRTYYADSVKGRFTISRDNAKNTVYLQMNSLKPEDTAVYYCNKGYGYEYYWGQGTQVTVSS,low polyreactivity
19,QVQLVESGGGLVQAGGSLRLSCAASGSIFGRYTMGWYRQAPGKERELVAAISWGGGSTYYADSVKGRFTISRDNAKNSVYLQMNSLKPEDTAVYYCAADTYWAIDPIYDYWGQGTQVTVSS,low polyreactivity
20,QVQLVESGGGLVQAGGSLRLSCAASGSIFGSNAMGWYRQAPGKERELVAAISSRAGRTYYADSVKGRFTISRDNAKNTVYLQMNSLKPEDTAVYYCAALYWVYRNRWLYDYWGLGTQVTVSS,high polyreactivity
21,QVQLVESGGGLVQAGGSLRLSCAASGSIFGSNTMGWYRQAPGKEREFVAAISFSGGSTYDADSVKGRFTISRDNAKNTVYLQMNSLKPEDTAVYYCAARQRRVGTSFYSSRRDYWGQGTQVTVSS,high polyreactivity
